Measured values from paper PMC12288907 (2025).

B1: recombinant H7-235 IgG1 (rH7-235 IgG1) (antibody, V domains shown)
VH: QVQLVESGGGVVQPGESLRLSCAASGFAFRTYGMHWVRQAPGKGLEWVGVIWYDGSNKYYGDSVKGRFTISRDNSQNTLYLQMNSLRAEDTAVYYCARNGERWRVEDYYYGMDVWGQGTLVTVSS
VL: EIVMTQSPLSLPVTPGEPASISCRSSQSLLHSNAHNYLDWYLQKPGQSPQLLIYLGSNRASGVPDRFSGSGSGTDFTLKISRVEAEDVGIYYCMQALQTPITFGQGTRLEIK
B2: recombinant H7-235 fragment antigen-binding region (rH7-235 Fab) (Fab, V domains shown)
VH: B1 VH
VL: B1 VL

What was measured:
[1] = target: T1, recombinant soluble trimeric H7 HA of A/Shanghai/02/2013 H7N9 (SH13 H7) (Influenza A virus A/Shanghai/02/2013 …); assay: BLI
[2] = target: A/Shanghai/02/2013 H7N9 (SH13) hemagglutinin HA1, monomeric (Influenza A virus A/Shanghai/02/2013 …, UniProt R4NN21 1-320, biotin (EZ-Link NHS-PEG4-Biotin, antigen:biotin 1:1) in the BLI only); assay: BLI
[3] = target: T1, recombinant soluble trimeric H7 HA of …; assay: ELISA

Row | Binder | Kd [1] [nM] | Kd [2] [nM] | EC50 [3] [nM]
1 | B1 | < 0.02 | < 0.02 | 0.03
2 | B2 | 2.12 |  | 0.16
